No end group written: not given here.
Target: recombinant SARS-CoV-2 M^pro (Proteros) (SARS-CoV-2)
Test: FRET enzymatic inhibition assay

Binder	Kd [µM]
Ac-Gly-His-His-aldehyde (SMILES CC(=O)NCC(=O)N[C@@H](Cc1c[nH]cn1)C(=O)N[C@H](C=O)Cc1c[nH]cn1) [compound 5 (aldehydic tripeptide)]	> 107
Ac-Gly-His-Tyr-aldehyde (SMILES CC(=O)NCC(=O)N[C@@H](Cc1c[nH]cn1)C(=O)N[C@H](C=O)Cc1ccc(O)cc1) [compound 7 (aldehydic tripeptide)]	> 213
Ac-Gly-Tyr-His-aldehyde (SMILES CC(=O)NCC(=O)N[C@@H](Cc1ccc(O)cc1)C(=O)N[C@H](C=O)Cc1c[nH]cn1) [compound 8 (aldehydic tripeptide)]	98.9 ± 11.9
Pro-His-His-aldehyde [compound 9 (aldehydic tripeptide)]	> 85

Target: recombinant SARS-CoV-2 M^pro (Proteros) (SARS-CoV-2)
Test: cell-based or functional assay

Binder	IC50 of inhibition of M^pro enzymatic activity (FRET substrate cleavage) [µM]
Ac-Gly-His-His-aldehyde (SMILES CC(=O)NCC(=O)N[C@@H](Cc1c[nH]cn1)C(=O)N[C@H](C=O)Cc1c[nH]cn1) [compound 5 (aldehydic tripeptide)]	> 213
Ac-Gly-His-Tyr-aldehyde (SMILES CC(=O)NCC(=O)N[C@@H](Cc1c[nH]cn1)C(=O)N[C@H](C=O)Cc1ccc(O)cc1) [compound 7 (aldehydic tripeptide)]	> 425
Ac-Gly-Tyr-His-aldehyde (SMILES CC(=O)NCC(=O)N[C@@H](Cc1ccc(O)cc1)C(=O)N[C@H](C=O)Cc1c[nH]cn1) [compound 8 (aldehydic tripeptide)]	198
Pro-His-His-aldehyde [compound 9 (aldehydic tripeptide)]	> 170

From PMC9579148 (European Journal of Medicinal Chemistry, 2022)
